The test system of this series is prothrombin.

From US20080267944 come the findings set out here.

Turning to “recombinant prothrombin activating protease (rLopap)”, the “prothrombin activation (thrombin formation followed with S-2238 chromogenic substrate)” value was “The native Lopap and the rLopap are able to activate prothrombin using preferentially the S-2238 substrate”; the “prothrombin activation, compared with native Lopap” value was “in same concentrations, rLopap is less efficient”; the “prothrombin hydrolysis (SDS-PAGE of fragments; prothrombin 10 uM, rLOPAP 2 uM)” value is “Under non-reduced conditions bands of 72 kDa (prothrombin), of 52 kDa probably corresponding to the prothrombin F1.2, one of 36 kDa corresponding to the thrombin or to the prethrombin 2, and one of 24 kDa corresponding to the fragment 1 (F1) of the prothrombin could be observed”; the “prothrombin hydrolysis in presence and absence of Factor Va (SDS-PAGE)” value is “The same hydrolysis standards were obtained in presence and in absence of the Factor Va”.
